For this test, the target named is TSHR on engineered CHO cells (UniProt P16473). Description: flow cytometry on CHO cells engineered with TSHR, detected with anti-human IgG1 Fc-Alexa Fluor 488.

B1: M22 Fabs (control of Example 16) (Fab, V domains shown)
VH: QVQLVQSGAEVKKPGESLKISCRGSGYRFTSYWINWVRQLPGKGLEWMGRIDPTDSYTNYSPSFKGHVTVSADKSINTAYLQWSSLKASDTGMYYCARLEPGYSSTWSVNWGQGTLVTVSS
VL: LTVLTQPPSVSGAPRQRVTISCSGNSSNIGNNAVNWYQQLPGKAPKLLIYYDDQLPSGVSDRFSGSRSGTSASLAIRGLQSEDEADYYCTSWDDSLDSQLFGGGTRLTVL
Molecule B1 registered a concentration at which fluorescence intensity peaked of 30 µg/mL.

The record behind these values is US20210188971A1.
